# Earlier results, collected in publication PMC3740200 (Dalton transactions (Cambridge, England : 2003), 2012).
# Like-named read-outs stand apart in the source and are kept apart here.
# How the values were obtained:
# [1] = ref [2]
# [2] = ref [1]; for turnover number: 100 mM phosphate buffer pH 7, 25 °C
# [3] = 4 °C, ref [16]
# [4] = ref [16]
molecule,measurement,setting,value
"WT DaCld: wild-type chlorite dismutase from Dechloromonas aromatica, heme-binding pentameric enzyme (protein, UniProt Q47CX0 32-282, looked up) Chlorite dismutase: QQAMQPMQSMKIERGTILTQPGVFGVFTMFKLRPDWNKVPVAERKGAAEEVKKLIEKHKDNVLVDLYLTRGLETNSDFFFRINAYDLAKAQTFMREFRSTTVGKNADVFETLVGVTKPLNYISKDKSPGLNAGLSSATYSGPAPRYVIVIPVKKNAEWWNMSPEERLKEMEVHTTPTLAYLVNVKRKLYHSTGLDDTDFITYFETDDLTAFNNLMLSLAQVKENKFHVRWGSPTTLGTIHSPEDVIKALAD",first order kobs of second step (PAA-independent),[1]; pH 6.0,0.3 s⁻¹
same,"second order rate constant k, formation of Compound I with PAA",[1]; pH 6,190000 M⁻¹ s⁻¹
same,"second order rate constant k, reaction with PAA",[1]; pH 8,1.3e+06 M⁻¹ s⁻¹
same,turnover number,[2],1.7×10^4 ClO2^− ions/heme
same,turnover number,[2]; listed as WT,17000 ClO2^− ions/heme
same,turnovers before irreversibly inactivating,[2],"~ 20,000 turnovers"
same,kcat,[3]; acidic form,120 ± 5 × 10^2 s^-1
same,kcat,[3]; alkaline form,460 s⁻¹
same,pKa of alkaline transition (5cHS to 6cLS),[4],8.9
